Experimental data reported in article PMC8385704.

These substances were tested against ACE2-Fc fusion protein (extracellular domain of human ACE2 and the Fc region of human IgG1) (human) (UniProt Q9BYF1) (assay: ELISA).

Substance | EC50 [nM]
recombinant S1-subunit or RBD of SARS-CoV-2 variant B.1.1.7 (domain or fragment) | 0.8
recombinant S1-subunit or RBD of SARS-CoV-2 variant B.1.351 (domain or fragment) | 6.9
recombinant S1-subunit or RBD of SARS-CoV-2 variant B.1.617.1 (domain or fragment) | 51.3
recombinant S1-subunit or RBD of SARS-CoV-2 variant P.1 (domain or fragment) | 14.9
recombinant S1-subunit or RBD of SARS-CoV-2-D614G (domain or fragment) | 2.6
